Results taken from patent US12202887B2, “Eradication of bacterial biofilm using anti-amyloid monoclonal antibodies” (priority 2018, dated 2025).
Where two headings read alike, the source gives them in different places.

Experiments:
S. Typhimurium biofilm [1] = assay: S. Typhimurium biofilms with or without ALZ.3H3, then ampicillin or DNase for 24 hours, Syto9 imaging; format: cell-based; details: for Overall biofilm appearance: wildtype biofilms treated alone for 24 hours after biofilm establishment
Description: Biofilms enhance the recalcitrance of bacteria to antibiotics (Keren et al., 2004, FEMS Microbiol Lett, 230(1):13-8, Brown et al., 1988, J Antimicrob Chemother, 22(6):777-80, Stewart, 2002, Int J Med Microbiol, 292(2):107-13). To enhance the clearance of bacterial biofilms, the structure of the biofilm was altered by employing ALZ.3H3 and then the biofilm was subjected to antibiotics to kill the bacteria within the disperse biofilm. […] an additional integral component of S. Typhimurium biofilms, wildtype or ALZ.3H3 incubated biofilms were exposed to X DNase treatment for an additional 24 hours. Biofilms were then stained with Syto9 and visualized using CSML. Excessive washing steps were avoided in aims to examine the architecture of the biofilms.

[2] = test system: tau paired helical filaments (TAU PHF) isolated from AD brain homogenates; assay: SPR binding to tau paired helical filaments; details: antibody concentration 66.7 nM
Chain of tau paired helical filaments (TAU PHF) isolated from AD brain homogenates (P10636 623-695 limits assumed): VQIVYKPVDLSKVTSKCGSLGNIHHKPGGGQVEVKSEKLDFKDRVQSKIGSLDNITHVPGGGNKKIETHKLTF
Procedure: FIG. 14 depicts a surface plasma resonance (SPR) analysis for binding to aggregated islet amyloid peptide IAPP and tau paired helical filaments (TAU PHF) isolated from AD brain homogenates. The antibody concentrations used in this study were 110 nM for the IAPP and 66.7 nM for the Tau-PHF.
Human mAbs were assayed by SPR for binding to aggregated islet amyloid peptide IAPP and tau paired helical filaments (TAU PHF) isolated from AD brain homogenates (FIG. 14). The antibody concentrations used in this study were 110 nM for the IAPP and 66.7 nM for the Tau-PHF.

[3] = test system: S. Typhimurium biofilm on medical grade catheters; assay: In vitro catheter assay: Salmonella biofilms grown on sterile i.v. catheters, GFP and Congo red; details: 0.5 mg/ml for 72 hours
Procedure: (§1) Salmonella biofilms were grown alone or in the presence of ALZ3H3 antibody upon sterile i.v. catheters. Bacteria were labeled green using GFP. Congo red was used to stain for curli amyloid fibrils. […] To investigate the combination effect of ALZ3H3 and ampicillin on biofilm growth, mice were given 1 mg/ml Ampicillin in the drinking water 24 hours prior to catheter insertion. Sterile i.v. catheters were incubated for 24 hours with Salmonella typhimurium prior to insertion into the back flanks of Balb/C mice. 24 and 28 hours after catheter insertion 100 ug of ALZ3H3 was percutaneously inserted into the lumen of the catheter. 72 hours after catheter insertion, mice were euthanized and the catheters were removed. Bacteria were labeled green using GFP. Congo red was used to stain for curli amyloid fibrils. Catheters autofluoresced green.

E. coli UTI89 biofilm = assay: Colony forming units per biofilm on glass coverslips, E. coli UTI89
Procedure: (§2) Biofilms of S. Typhimurium (STM) or E. coli UTI89 grown in the absence or presence of 3H3 (250 ug/ml, 125 ug/ml, 50 ug/ml, 25 ug/ml, 10 ug/ml, 1 ug/ml) as well as grown with 0.5 mg/ml control A6 antibody on top of sterile glass coverslips for 72 hours at 26 C in a sterile 24 well dish. S. Typhimurium curli mutant (csgBA) and UTI89 curli mutant (csgBA) were also grown as a negative controls. In select conditions, biofilms were incubated for an additional 24 hours at 26 C with 30 ug/ml Ampicillin (Amp). The sterile glass coverslip, which was used as a surface for the biofilm to grow upon, was placed in a sterile 15 ml conical tube that contained 3 ml of sterile PBS. The biofilm was sonicated for 10 seconds at a setting of 4 using a ThermoFisher Sonic Dismembrator. Bacteria were enumerated by serial diluting 1:10 in sterile PBS and spot plating on agar plates.
(§3) Biofilms of S. Typhimurium (STM) or E. coli UTI89 grown in the absence or presence of 3H3 (250 ug/ml, 125 ug/ml, 50 ug/ml, 25 ug/ml, 10 ug/ml, 1 ug/ml) as well as grown with 0.5 mg/ml control A6 antibody on top of sterile glass coverslips for 72 hours at 26 C in a sterile 24 well dish. S. Typhimurium curli mutant (csgBA) and UTI89 curli mutant (csgBA) were also grown as a negative controls. In select conditions, biofilms were incubated for an additional 24 hours at 26 C with 30 ug/ml Ampicillin (Amp). […]

[4] = test system: pre-established S. Typhimurium biofilms; assay: mAb added to pre-established S. Typhimurium biofilms, CSLM and particle count; format: cell-based
Procedure: To determine if ALZ.3H3 can reduce biofilm formation of pre-established biofilms of S. Typhimurium, 0.5 mg/ml of ALZ.3H3 was added for an additional 24 hours to a 24 hour pre-established biofilm of S. Typhimurium, or 0.5 mg/ml of ALZ.3H3 was added for 24 hours to a 48 hour pre-established biofilms. These biofilms were then compared, respectively, to a 48 and 72 hour S. Typhimurium biofilm that was not exposed to ALZ.3H3 (FIG. 2A). Biofilms were stained with Syto9 and imaged using CSML. Biofilms were not wash extensively in order determine the impact of ALZ.3H3 on biofilm architecture. […] Using the thresholding technique described earlier, the number of particles above the thickness of the wild-type S. Typhimurium were counted.

[5] = test system: S. Typhimurium (STM) biofilm; assay: Colony forming units per biofilm on glass coverslips, S. Typhimurium
Procedure: as §2, §3

S. Typhimurium biofilm [6] = assay: S. Typhimurium biofilms established in presence of mAb, Syto9 stain, CSLM, ImageJ particle count, supernatant plating; format: cell-based; details: 0.5 mg/ml
Procedure: After growth, biofilms were stained with Syto9 and imaged using CSLM. Three dimensional architecture was examined by creating 3D surface plots using ImageJ. […] To quantify the disperse biofilm created by treatment with ALZ.3H3, through the use of ImageJ all particles above the thickness of a wild-type S. Typhimurium ([…]) was used to set the threshold value, and these threshold parameters were applied to subsequent treatments (FIG. 1B). […] The bacteria recovered from the supernatants is representative of the loose disperse biofilm matrix that is easily dissociated from the biomass.

[7] = test system: Histadine tagged CsgA (His-CsgA), curli; assay: Thioflavin T (ThT) fibrillization assay of His-CsgA; format: biochemical
Procedure: The formation of monomers into mature curli fibrils can be monitored by incubation with Thioflavin T (ThT). Fluorescence of ThT increases as it binds to amyloid fibril, allowing the amyloid formation process to be measured spectroscopically. The formation of amyloid fibers can be defined by a three stage sigmoidal curve (Dueholm et al., 2011, Biochemistry, 50(39):8281-90; Wang et al., 2007, J Biol Chem, 282(6):3713-9). In the first stage, monomeric subunits are slow to self-associate and ThT fluorescence is minimal (Naiki et al., 1991, Lab Invest, 65(1):104-10). The reaction exponential increases as monomeric seeds oligomerize and continue to elongate (Naiki et al., 1991, Lab Invest, 65(1):104-10). This process is marked by a rapid increase in ThT fluorescence (Naiki et al., 1991, Lab Invest, 65(1):104-10). The oligomers elongate into mature fibrils and Tht fluorescence peaks (Dueholm et al., 2011, Biochemistry, 50(39):8281-90; Wang et al., 2007, J Biol Chem, 282(6):3713-9). […] Histadine tagged CsgA (His-CsgA), which will naturally self-associate and fibrillize, was incubated with 0.5 mg/ml ALZ.3H3 and the fibrillization reaction was monitored using ThT. As controls synthetic peptides CsgAR4-5 and CsgAR4-5N122A were incubated with Tht and the fribrillization reaction was monitored in parallel. […]

[8] = test system: Salmonella typhimurium catheter biofilm; assay: In vivo catheter assay: Salmonella typhimurium colonized catheters inserted into back flanks of mice
Procedure: as §1

Aβ42 conformers = target: T1, Aβ42 conformers (Homo sapiens, UniProt P05067); assay: MAb binding to Aβ42 conformers by surface plasma resonance (SPR)
T1 construct: Amyloid beta derived diffusible ligands (ADDLs), also known as globulomers, produced from Aβ42
T1 sequence (P05067 672-713 limits assumed): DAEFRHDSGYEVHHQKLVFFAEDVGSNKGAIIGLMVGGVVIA
Procedure: MAb binding to Aβ42 conformers was measured by surface plasma resonance (SPR) (Table 1). Calculated affinity constants (KD) were obtained using Qdat software. […] The 3H3 binding data is qualitatively most similar to the 4G1 and 6E10 mAbs.

Molecule: CC1(C)S[C@@H]2[C@H](NC(=O)[C@H](N)c3ccccc3)C(=O)N2[C@H]1C(=O)O [ampicillin]
- Overall biofilm appearance (S. Typhimurium biofilm [1]): no alteration in overall biofilm appearance

Molecule: DNase
- Overall biofilm appearance (S. Typhimurium biofilm [1]): no alteration in overall biofilm appearance

B1: 4G1: human anti-amyloid mAb cloned from B cells of an Alzheimer's patient; heavy chain SEQ ID NO:61, light chain SEQ ID NO:63 (antibody, V domains shown)
VH: EEHLVESGGALVQPGGSLRLSCEASGFTFRSYWMTWVRQAPGKGLEWLANIKQDGSDYYYVDSVKGRFTISRDNAKNTLYLQMNNLRADDTAVYFCARDARYRDTTWPQYYFYYFMDVWGKGTTVTVSS
VL: DIQLTQSPSSLSASIGDRVTVTCRASQSISNYLNWYQQKPGKAPKLLIYAASNLHTGVPSRFSGSGSGTHFTLTISSLQPEDFATYYCQLSYNNPRTFGPGTTVDIR
modifications: Chemically Synthesized, ALZ.4G1 Heavy Chain; Chemically Synthesized, ALZ.4G1 Light Chain
- Binding to Tau PHF [2]: notable for binding to Tau PHF

B2: ALZ.3H3: human monoclonal antibody with pan-amyloid binding activity; heavy chain SEQ ID NO:2, light chain SEQ ID NO:35 (antibody)
VH: MEFGLSWVFLVALLRGVQCQVQLVESGGGVVQPGRSLRLSCAASGFSFSTYGMHWVRQAPGKGLEWVAVISYDGSRKYYADTGKGRFTISRDNSKNTLYLEMNGLRAEDTAVYHCAKDLRRELGFGNRDYHYYGMDAWGQGTTVTVSSASTK
light: LTQPRSVSGSPGQSVTMSCTGTNSDIGGYNYVSWYQQHPGKAPKLMIYDVYKRPSGVPDRFSGSKSGNTASLTISGLQAEDEADYYCCSYAGTNNLIFGGGTKLTVLGQPKAAPSVTLFPPSSEELQANKATLVCLISDFYPGAVTVAWKADSSPVKAGVETTTPSKQSNNKYAASSYLSLTPEQWKSHRSYSCQV
modifications: Chemically Synthesized, ALZ.3H3 Heavy Chain; Chemically Synthesized, ALZ.3H3 Light Chain
- Biofilm mass (S. Typhimurium biofilm [1]; 0.5 mg/ml ALZ.3H3 during growth, then antibiotic treatment (ampicillin) for additional 24 hours): significant reduction in the biofilm mass to the levels below detection
- Catheter biofilm morphology [3]: the biofilm was dispersed
- Congo red staining (curli fibers) [3]: no significant staining with Congo red
- CFU/biofilm (E. coli UTI89 biofilm; UTI89 grown with 3H3 (1-250 ug/ml), 72 hours at 26 C): reduction of CFU/biofilm
- CFU/biofilm (E. coli UTI89 biofilm; UTI89 grown with 3H3, then 30 ug/ml Ampicillin for additional 24 hours): additional reduction in CFU/biofilm
- Number of particles above the thickness of wild-type biofilm ([4]; 24 hour pre-established biofilm + 0.5 mg/ml for 24 hours): increased the number of particles
- Biofilm matrix architecture ([4]; 24 hour pre-established biofilm + 0.5 mg/ml for additional 24 hours, vs 48 hour biofilm): began to exhibit a more disperse matrix
- Number of particles above the thickness of wild-type biofilm ([4]; 48 hour pre-established biofilm + 0.5 mg/ml for 24 hours): the number of particles increased as well
- Biofilm matrix architecture ([4]; 48 hour pre-established biofilm + 0.5 mg/ml for additional 24 hours, vs 72 hour biofilm): the biofilm matrix was more disperse
- CFU/biofilm ([5]; STM grown with 3H3 (1-250 ug/ml), 72 hours at 26 C): reduction of CFU/biofilm
- CFU/biofilm ([5]; STM grown with 3H3, then 30 ug/ml Ampicillin for additional 24 hours): additional reduction in CFU/biofilm
- Number of particles above the thickness of wild-type biofilm (20 μM) (S. Typhimurium biofilm [6]; 72 hours at 28° C.): significant increase in number of particles
- Biofilm architecture (S. Typhimurium biofilm [6]; 72 hours at 28° C., 3D surface plots): altered the architecture of biofilm forming a disperse biofilm topography
- Bacteria recovered from biofilm supernatant (S. Typhimurium biofilm [6]; plating supernatants): significantly more bacteria was recovered
- Lag time (t0) for His-CsgA to self-associate and oligomerize ([7]; 0.5 mg/ml antibody, compared to synthetic peptide CsgAR4-5): significant increase in the lag times
- ThT relative fluorescence units (fibril formation) ([7]; His-CsgA with 0.5 mg/ml antibody): significant reduction in the relative fluorescence units
- Catheter biofilm morphology and curli ([8]; 100 ug percutaneously into catheter lumen, catheters removed at 72 hours): disperse morphology with little curli
- Amyloid incorporation in catheter biofilm ([8]; combination: 100 ug ALZ3H3 into lumen + 1 mg/ml ampicillin in drinking water): little to no amyloid incorporation
- Binding to Tau PHF [2]: notable for binding to Tau PHF

B3: 4A6: human anti-amyloid mAb cloned from B cells of an Alzheimer's patient; heavy chain SEQ ID NO:57, light chain SEQ ID NO:59 (antibody, V domains shown)
VH: QVQLVQSGAEVKKPGASMRVSCKASGYTYTAYYIHWMRQAPGQGLEWMGWINPHIGSTNYAEKFRGRVTLTRDTSIKTAYMDLDRLTSDDTAIYYCARVRAPRSISGTLNSYGMDVWGQGTTVAVSS
VL: DIVMTQSPSSLSASVGDRVVITCRASLRIGTFLNWYQQTQGRAPKLLVSSASTLQSGVPSRFSGSGSGTDFTLTINSLQPEDFATYYCQQSYSTTWTFGQGTKVELK
modifications: Chemically Synthesized, ALZ.4A6 Heavy Chain; Chemically Synthesized, ALZ.4A6 Light Chain
- Binding preference among Aβ42 conformers (Aβ42 conformers): preferentially bind Aβ fibrils
- Kd (Aβ42 conformers; C-terminal biotinylated ADDLs/globulomers, read-out: Calculated affinity constant (KD), CTB oligo): > 2000 nM
- Kd (Aβ42 conformers; N-terminal biotinylated monomers, read-out: Calculated affinity constant (KD), NTB mono): > 2000 nM
